Source: patent publication US20240034792A1 (HARBOUR BIOMED SHANGHAI, published 2024)

Legend:
[1] = biological target: T1, Cynomolgus monkey PD-1 expressed on CHO-K1 cells (CHO-K1/cyno PD-1) (cynomolgus monkey, UniProt B0LAJ3 25-288); experiment: FACS, CHO-K1/cyno PD-1 cells
T1 construct: also called CHO-K1 cells overexpressing cynomolgus monkey PD-1
Description: (§1) In order to investigate the in vitro binding activity of the PD-1 antigen-binding proteins to human/cynomolgus monkey PD-1, the binding assay at the cellular level was performed using a CHO-K1 cell strain overexpressing human or cynomolgus monkey PD-1 (CHO-K1/hPD-1 or CHO-K1/cyno PD-1, from GenScript). Briefly, the CHO-K1-hPD-1 cells were digested and resuspended in an F-12K complete medium, and the cell density was adjusted to 1×10⁶ cells/mL. The cells were seeded in a 96-well V-bottom plate (Corning, Cat#3894) at 100 μL/well, followed by the addition of the test antigen-binding proteins with concentrations 2-fold of final concentrations obtained by 5-fold gradient dilution were each added at 100 μL/well. The mixtures were well mixed. The maximum final concentration of the antigen-binding proteins was 100 nM or 300 nM. A total of 8-11 concentrations were set. hIgG was used as a control. The cells were incubated at 4° C. for 1 h away from light. Thereafter, the cells in each well were rinsed twice with 100 μL of pre-cooled PBS, and centrifuged at 500 g at 4° C. for 5 min, and then the supernatant was discarded. Then 100 μL of a fluorescent secondary antibody (goat anti-human IgG (H+L) secondary antibody, Alexa Fluor® 488 conjugate, Invitrogen, Cat #A11013, 1:1000) was added to each well. The plate was incubated away from light at 4° C. for 30 min. The cells in each well were rinsed twice with 200 μL of pre-cooled PBS, and centrifuged at 500 g at 4° C. for 5 min, and then the supernatant was discarded. Finally, the cells in each well were resuspended in 200 μL of pre-cooled PBS, and the fluorescence signal values were read using a BD FACS CANTOII.

[2] = biological target: T2, Cynomolgus monkey PD-1-His protein (AcroBiosystems, # PD1-05223) (cynomolgus monkey, UniProt B0LAJ3 25-170); experiment: ELISA, plate-coated cynomolgus monkey PD-1-His
T2 construct: Bought reagent, coated on the ELISA plate; also called cynomolgus monkey PD-1 protein
Description: Cynomolgus monkey PD-1-His protein (AcroBiosystems, # PD1-05223) was diluted to 2 μg/mL with PBS, added to a 96-well plate (Corning, #9018) at 100 μL/well, and incubated at 4° C. overnight. After the liquid was discarded, the plate was washed 3 times with PBST, blocked by adding 250 μL of 2% BSA, and incubated at room temperature for 1 h. The blocking buffer was discarded, and the plate was washed 3 times with PBST buffer (pH 7.4, containing 0.05% Tween-20). The test antigen-binding protein was diluted to 5 μg/mL, and added at 100 μL/well. The plate was incubated at 37° C. for 1 h. After the plate was washed 3 times with PBST buffer (pH 7.4, containing 0.05% Tween-20), a 4000-fold diluted goat anti-human HRP secondary antibody (Invitrogen, #A18805) was added. The plate was incubated at 37° C. for 1 h. After the plate was washed, TMB (Biopanda, # TMB-S-003) was added at 100 μL/well. The plate was left away from light at room temperature for 5 min. The reactions were terminated by adding 50 μL of stop buffer (BBI life sciences, #E661006-0200) to each well, and the absorbance values at 450 nm (OD450) were measured using a microplate reader (PerkinElemer, #Enspire).

[3] = biological target: T3, Human CD73 expressed on CHO-K1 cells (CHO-K1-hCD73) (human, UniProt P21589 27-549); experiment: FACS, CHO-K1-hCD73 cells
T3 construct: whole, on cells
T3 sequence (looked up): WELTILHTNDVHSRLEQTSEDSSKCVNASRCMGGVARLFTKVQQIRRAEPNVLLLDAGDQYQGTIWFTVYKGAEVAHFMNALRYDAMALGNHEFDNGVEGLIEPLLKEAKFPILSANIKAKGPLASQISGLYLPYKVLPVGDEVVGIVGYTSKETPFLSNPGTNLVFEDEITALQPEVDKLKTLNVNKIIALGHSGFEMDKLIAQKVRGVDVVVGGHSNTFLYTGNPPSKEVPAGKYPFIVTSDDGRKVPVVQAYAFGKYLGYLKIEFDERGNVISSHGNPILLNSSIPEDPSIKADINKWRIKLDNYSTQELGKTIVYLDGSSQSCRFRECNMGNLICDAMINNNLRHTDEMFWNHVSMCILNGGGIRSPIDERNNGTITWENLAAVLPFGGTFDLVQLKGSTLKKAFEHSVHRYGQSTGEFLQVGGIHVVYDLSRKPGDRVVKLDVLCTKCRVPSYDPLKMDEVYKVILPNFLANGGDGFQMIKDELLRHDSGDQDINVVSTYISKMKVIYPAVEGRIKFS
Description: In order to investigate the binding activity of the CD73×PD-1 bispecific antibody to human CD73 and PD-1, the binding assay at the cellular level was performed using a CHO-K1 cell strain overexpressing human CD73 or PD-1 (CHO-K1-hCD73 or CHO-K1-hPD-1). Briefly, the CHO-K1-hCD73 and CHO-K1-hPD-1 cells were digested and resuspended in an F-12K complete medium, and the cell density was adjusted to 1×10⁶ cells/mL. The cells were seeded in a 96-well V-bottom plate (Corning, #3894) at 100 μL/well, followed by the addition at 100 μL/well and centrifugation at 500 g at 4° C. for 5 min, and then the supernatant was discarded. Antibodies were 3-fold diluted to a maximum final concentration of 50 nM, and a total of 8 concentrations were set. 100 μL of the diluted antibodies was added to each well, and the cells were incubated at 4° C. for 1 h away from light. Thereafter, the cells in each well were rinsed twice with 100 μL of pre-cooled PBS, and centrifuged at 500 g at 4° C. for 5 min, and then the supernatant was discarded. Then 100 μL of a fluorescent secondary antibody (goat anti-human IgG (H+L) secondary antibody, Alexa Fluor® 488 conjugate, Invitrogen, Cat #A11013, 1:1000) was added to each well. […] Finally, the cells in each well were resuspended in 200 μL of pre-cooled PBS, and the fluorescence signal values were read using a BD FACS CANTOII.

[4] = biological target: T4, Human PD-1-His protein (ACROBiosystems, # PD1-H5221) (human, UniProt Q15116 25-167); experiment: ELISA, plate-coated human PD-1-His
T4 construct: Bought reagent, coated on the ELISA plate; also called human PD-1 protein; human PD-1 antigen; not shown: His tag
Description: Human PD-1-His protein (ACROBiosystems, # PD1-H5221) was diluted to 2 μg/mL with PBS, added to a 96-well plate (Corning, cat#9018) at 100 μL/well, and incubated at 4° C. overnight. After the liquid was discarded, the plate was washed 3 times with PBST buffer (pH 7.4, containing 0.05% Tween-20), and 250 μL of 2% BSA blocking buffer was added. The plate was incubated at 37° C. for 1 h. The blocking buffer was discarded, and the plate was washed 3 times with PBST buffer (pH 7.4, containing 0.05% Tween-20). The test antigen-binding protein was 5-fold diluted in sequence at an initial concentration of 100 nM for a total of 8-10 concentration gradients, and added at 100 μL/well. The plate was incubated at 37° C. for 1 h. An isotype antibody was taken as a control. After the plate was washed 3 times with PBST buffer (pH 7.4, containing 0.05% Tween-20), a 4000-fold diluted goat anti-human HRP secondary antibody (Invitrogen, #A18805) was added. The plate was incubated away from light at 37° C. for 1 h. After the plate was washed 3 times with PBST buffer (pH 7.4, containing 0.05% Tween-20), TMB (Biopanda, # TMB-S-003) was added at 100 μL/well. The plate was left away from light at room temperature for about 5 min. The reactions were terminated by adding 50 μL of stop buffer (BBI life sciences, #E661006-0200) to each well, and the absorbance values at 450 nm (OD450) were measured using a microplate reader (PerkinElemer, #Enspire). The half maximal effective concentration (EC₅₀) was calculated from the measurement results.

[5] = biological target: T5, Human PD-1 expressed on CHO-K1 cells (CHO-K1/hPD-1) (human, UniProt Q15116 25-288); experiment: FACS blocking of biotin-labeled human PD-L1 binding to CHO-K1-hPD-1 cells
T5 construct: whole, on cells; also called CHO-K1 cells overexpressing human PD-1
Description: Briefly, the CHO-K1-hPD-1 cells were digested and resuspended in an F-12K complete medium, and the cell density was adjusted to 1×10⁶ cells/mL. The cells were seeded in a 96-well V-bottom plate (Corning, Cat#3894) at 100 μL/well, followed by the addition of the test antigen-binding proteins with concentrations 2-fold of final concentrations obtained by 3-fold or 5-fold gradient dilution were each added at 100 μL/well. The mixtures were well mixed. The maximum final concentration of the antigen-binding proteins was 100 nM or 300 nM. A total of 8 concentrations were set. hIgG was used as a control. The cells were incubated at 4° C. for 1 h away from light. […] The cells were incubated at 4° C. away from light for 30 min. The cells in each well were rinsed twice with 100 μL of pre-cooled PBS, and centrifuged at 500 g at 4° C. for 5 min, and then the supernatant was discarded. A fluorescent secondary antibody (PE Streptavidin, BD, Cat# 554061, 1:200) was added at 100 μL/well, and the cells were incubated at 4° C. away from light for 30 min. The cells in each well were rinsed twice with 200 μL of pre-cooled PBS, and centrifuged at 500 g at 4° C. for 5 min, and then the supernatant was discarded. Finally, the cells in each well were resuspended in 200 μL of pre-cooled PBS, the fluorescence signal values were read using a BD FACS CANTOII, and the IC₅₀ values were calculated.

[6] = biological target: T5, Human PD-1 expressed on CHO-K1 cells …; experiment: FACS, CHO-K1/hPD-1 cells
Description: as §1

T2 sequence (B0LAJ3 entry or part of it limits assumed): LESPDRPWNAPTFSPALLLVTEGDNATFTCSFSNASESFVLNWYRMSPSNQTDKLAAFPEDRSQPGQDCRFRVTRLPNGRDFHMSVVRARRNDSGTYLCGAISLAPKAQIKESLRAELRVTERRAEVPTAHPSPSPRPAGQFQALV
T4 sequence (Q15116 25-167 limits assumed): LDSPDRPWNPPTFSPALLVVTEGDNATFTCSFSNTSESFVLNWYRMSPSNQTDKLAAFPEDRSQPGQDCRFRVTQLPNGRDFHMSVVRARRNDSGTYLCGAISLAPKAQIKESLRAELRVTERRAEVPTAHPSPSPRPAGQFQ
T5 sequence (Q15116 25-288): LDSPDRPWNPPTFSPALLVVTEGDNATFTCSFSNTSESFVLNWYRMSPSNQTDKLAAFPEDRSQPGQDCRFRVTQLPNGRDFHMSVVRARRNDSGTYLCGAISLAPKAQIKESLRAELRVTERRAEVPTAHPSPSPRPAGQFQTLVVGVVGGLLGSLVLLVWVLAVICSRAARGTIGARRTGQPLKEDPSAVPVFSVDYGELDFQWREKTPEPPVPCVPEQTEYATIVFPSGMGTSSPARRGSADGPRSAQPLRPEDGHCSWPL
T1 sequence (B0LAJ3 entry or part of it limits assumed): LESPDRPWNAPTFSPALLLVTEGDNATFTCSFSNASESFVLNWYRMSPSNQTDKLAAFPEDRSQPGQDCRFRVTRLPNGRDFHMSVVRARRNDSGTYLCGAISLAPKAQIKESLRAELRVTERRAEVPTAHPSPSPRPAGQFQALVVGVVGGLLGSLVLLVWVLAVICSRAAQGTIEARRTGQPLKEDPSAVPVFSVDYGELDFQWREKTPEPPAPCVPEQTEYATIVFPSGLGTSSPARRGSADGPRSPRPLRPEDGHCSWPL

Binder	EC50 [1] [nM]	MFI Maximum [1]	EC50 [2] [nM]	OD Maximum [2]	EC50 [3] [nM]	EC50 [4] [nM]	OD Maximum [4]	IC50 [5] [nM]	Maximum inhibition rate (%) [5] [%]	EC50 [6] [nM]	MFI Maximum [6]
PR000150 (pembrolizumab analog) (antibody, human IgG4 S228P, kappa, V domains shown, Anti-PD-1 positive control; also called positive control antibody pembrolizumab) VH: QVQLVQSGVEVKKPGASVKVSCKASGYTFTNYYMYWVRQAPGQGLEWMGGINPSNGGTNFNEKFKNRVTLTTDSSTTTAYMELKSLQFDDTAVYYCARRDYRFDMGFDYWGQGTTVTVSS VL: EIVLTQSPATLSLSPGERATLSCRASKGVSTSGYSYLHWYQQKPGQAPRLLIYLASYLESGVPARFSGSGSGTDFTLTISSLEPEDFAVYYCQHSRDLPLTFGGGTKVEIKR	0.998	19100	0.039	2.86							
PR000846 (antibody, human IgG1, kappa, L234A L235A, V domains shown, Parent monoclonal antibody of the CD73 end of PR003568; also called anti-CD73 IgG monoclonal antibody PR000846; anti-CD73 H2L2 antibody PR000846) VH: QVQLVESGGGVAQPGRSLSLSCAASGFTFSDYGMHWVRQAPGKGLEWVALIWYDASFEYYADSVKGRFSISRDNSKNTLYLQMNSLRAEDTAVYYCVRDAQWGSRLDYWGQGTLVTVSS VL: KIVMTQSPATLSLSPGERATLSCRASQSVSRYLAWYQQKPGQAPRLLIYDASNRATGIPARFSGSGSGTDFTLTISSLEPEDFAVYYCQQRSNWIFTFGPGTKVDIKR					1.45						

The remaining lines, values ahead:

EC50 [1] [nM]	MFI Maximum [1]	EC50 [2] [nM]	OD Maximum [2]	EC50 [3] [nM]	EC50 [4] [nM]	OD Maximum [4]	IC50 [5] [nM]	Maximum inhibition rate (%) [5] [%]	EC50 [6] [nM]	MFI Maximum [6]	Binder
		0.345	2.89		0.189	2.97	8.91	92.2	13.9	1.08e+06	PR002474 (antibody, human IgG1, V domains shown, Heavy-chain-only antibody (HCAb), human IgG1 Fc; two heavy chains, no light chain; also called R4004P547D3) VH: EVQLVETGGGLIQPGGSLRLSCAASGFNVSSHYMSWVRQAPGKGLEWVSIIHSGGSTYYADSVKGRFTISRDNSKNRLYLQMNSLRADDTAVYYCARATAVAEKNGYNYPFNYWGQGTLVTVSS
		0.366	2.7		0.171	2.92	10.3	91.3	12.7	1.02e+06	PR002476 (antibody, human IgG1, V domains shown, Heavy-chain-only antibody (HCAb), human IgG1 Fc; two heavy chains, no light chain; also called R4004P547H11) VH: EVQLVETGGGLIQPGGSLRLSCAASGFNVSSHYMSWVRQAPGKGLEWVSIIHSGGSTYYADSVKGRFTISRDNSKNRLYLQMNSLRAEDTAVYYCARATAVAEKNGYNYPFNYWGQGTLVTVSS
		0.252	2.88		0.152	2.85	16.2	96.2	17	1.05e+06	PR002479 (antibody, human IgG1, V domains shown, Heavy-chain-only antibody (HCAb), human IgG1 Fc; two heavy chains, no light chain; also called R4004P551D6) VH: EVQLVETGGGLIQPGGSLRLSCAASGFNVSSHYMSWVRQAPGKGLEWVSIIHSGGSTYYADSVKGRFTISRDNSKNRLYLQMNSLRAEDTAVYYCARATAVAEENGYNYPFNYWGQGTLVTVSS
